Measurements: patent US20250163183A1 (COAGULANT THERAPEUTICS, published 2025)
Values joined by “and” are separate entries in the source; they are usually repeats but may differ in a detail not shown here. Identical values can stand only once.

T1: FVIIa (UniProt P08709 61-466)
T1 construct: also called factor VIIa
T1 sequence (looked up): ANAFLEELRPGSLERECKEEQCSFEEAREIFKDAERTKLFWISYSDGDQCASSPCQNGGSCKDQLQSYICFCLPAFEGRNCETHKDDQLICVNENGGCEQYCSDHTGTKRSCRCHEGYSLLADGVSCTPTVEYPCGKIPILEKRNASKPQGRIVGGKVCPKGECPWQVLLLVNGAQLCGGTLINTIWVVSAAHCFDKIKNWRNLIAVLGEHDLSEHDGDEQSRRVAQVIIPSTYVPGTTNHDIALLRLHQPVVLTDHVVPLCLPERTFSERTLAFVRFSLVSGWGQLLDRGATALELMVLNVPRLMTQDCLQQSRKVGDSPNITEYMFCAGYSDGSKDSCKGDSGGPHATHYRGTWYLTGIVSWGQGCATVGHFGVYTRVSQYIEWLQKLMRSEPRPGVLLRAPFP


How the values were obtained:
[1] = biological target: T2, human activated protein C (APC) (human, UniProt P04070 43-461); assay: cell-based or functional assay
[2] = biological target: T2, human activated protein C (APC); assay: BLI, VHH captured via anti-V5, APC in solution
[3] = biological target: T3, FXIa (UniProt P03951 19-625); assay: ELISA, FXIa coated at 10 µg/mL, HRP-anti-V5, n=3
T3 construct: also called factor XIa

[4] = biological target: T4, human protein C (PC) zymogen (human, UniProt P04070 43-197; P04070 200-461); assay: ELISA screen, PC-coated wells, OD450, n=2 [Continued]
T4 construct: Bought

[5] = biological target: T2, human activated protein C (APC); assay: BLI (Octet): nanobody captured on anti-V5 sensor, dipped in 500 nM APC; buffer sensor reads 0.06
[6] = biological target: T2, human activated protein C (APC); assay: cell-based or functional assay; remark: listed apart in the source
[7] = biological target: T1, FVIIa; assay: ELISA, FVIIa coated at 10 µg/mL, HRP-anti-V5, n=3
[8] = biological target: T4, human protein C (PC) zymogen; assay: ELISA screen, PC-coated wells, OD450, n=2 [Continued]; remark: listed apart in the source
[9] = biological target: T4, human protein C (PC) zymogen; assay: ELISA
[10] = biological target: T4, human protein C (PC) zymogen; assay: ELISA screen, PC-coated wells, OD450, n=2
[11] = biological target: T2, human activated protein C (APC); assay: BLI (Octet), nanobody captured, 5 APC concentrations, 1:1 model; written in place of a bar

T4 sequence (P04070 43-197, chain 1 of 2): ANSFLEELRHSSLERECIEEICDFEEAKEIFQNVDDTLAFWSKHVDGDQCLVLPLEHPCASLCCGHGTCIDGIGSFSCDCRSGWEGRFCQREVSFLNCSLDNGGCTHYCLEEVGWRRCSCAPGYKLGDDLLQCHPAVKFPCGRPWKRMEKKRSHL
T4 sequence (P04070 200-461, chain 2 of 2): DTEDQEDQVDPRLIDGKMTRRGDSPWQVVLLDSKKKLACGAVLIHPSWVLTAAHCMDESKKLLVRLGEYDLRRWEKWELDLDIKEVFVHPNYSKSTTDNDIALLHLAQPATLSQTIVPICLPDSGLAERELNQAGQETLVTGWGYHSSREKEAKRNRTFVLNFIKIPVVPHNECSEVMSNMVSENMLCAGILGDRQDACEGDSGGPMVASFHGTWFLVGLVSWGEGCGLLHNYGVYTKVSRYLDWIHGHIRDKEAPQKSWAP
T2 sequence (P04070 other isoform, or with tags, fused parts or gaps): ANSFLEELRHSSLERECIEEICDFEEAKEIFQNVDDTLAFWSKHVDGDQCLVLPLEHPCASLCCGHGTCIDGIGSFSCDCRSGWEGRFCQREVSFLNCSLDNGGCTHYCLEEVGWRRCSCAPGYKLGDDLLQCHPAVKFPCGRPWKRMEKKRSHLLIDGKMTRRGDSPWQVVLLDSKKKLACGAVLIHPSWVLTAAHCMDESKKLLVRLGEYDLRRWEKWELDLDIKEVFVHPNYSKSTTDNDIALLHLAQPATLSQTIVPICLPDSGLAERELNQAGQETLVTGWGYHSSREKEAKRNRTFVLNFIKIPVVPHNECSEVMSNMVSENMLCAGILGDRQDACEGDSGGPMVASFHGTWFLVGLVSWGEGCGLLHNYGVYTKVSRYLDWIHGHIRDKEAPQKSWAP
T3 sequence (P03951 19-625 limits assumed): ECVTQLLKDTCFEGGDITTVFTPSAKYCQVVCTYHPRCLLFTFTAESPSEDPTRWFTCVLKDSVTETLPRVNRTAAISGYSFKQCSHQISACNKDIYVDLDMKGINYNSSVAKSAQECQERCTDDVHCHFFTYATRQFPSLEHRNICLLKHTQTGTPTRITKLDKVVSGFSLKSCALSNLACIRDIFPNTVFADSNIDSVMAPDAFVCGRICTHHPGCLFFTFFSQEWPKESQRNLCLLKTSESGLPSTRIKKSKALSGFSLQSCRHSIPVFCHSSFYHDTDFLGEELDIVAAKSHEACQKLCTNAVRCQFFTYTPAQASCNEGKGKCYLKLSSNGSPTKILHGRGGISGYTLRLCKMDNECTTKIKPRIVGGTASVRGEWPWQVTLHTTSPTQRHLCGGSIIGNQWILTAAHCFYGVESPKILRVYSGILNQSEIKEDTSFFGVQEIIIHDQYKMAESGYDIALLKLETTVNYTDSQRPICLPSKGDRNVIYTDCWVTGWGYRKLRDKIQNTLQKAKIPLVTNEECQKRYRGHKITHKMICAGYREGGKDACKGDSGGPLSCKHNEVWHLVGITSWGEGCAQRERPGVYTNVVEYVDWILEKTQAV

Row | Binder | APC plasma T1/2 (min; mean) [1] | Kd [2] | koff [2] | kon [2] | binding result [3] | binding result [4] | APC binding (nm) [5] | R46/R41 cleavage ratio of PAR1 by APC [6] | binding result [7] | binding result [8] | APC-mediated histone H3 cleavage, 500 nM nanobody [6] | Protac-APTT clotting time, 300 nM nanobody [6] | binding result [9] | binding result [10] | Kd [11]
1 | LP18 (SR16983-R4-P1-A11) (VHH, not shown: small tags and cut ends, Llama VHH purified from E. coli periplasm) VHH: QLQLVESGGGLVQPGGSLRLSCAASGFTFSTKWMYWVRQGPGKGLERVAAIDAGGTSTYYADSVKGRFTISRDNSENTVYLQMNSLESADTAVYYCARSEGGLFRGRGTQVTVSA | 16.1 min | 4.5 nM | 0.0011 s⁻¹ | 240000 M⁻¹ s⁻¹ | no binding (tested: 2 µg/mL) | no binding | 0.29 nm | > 1 ratio | no binding (tested: 2 µg/mL) | – | – | – | – | – | –
2 | LP10 (SR16983-R3-P3-E06) (VHH, not shown: small tags and cut ends, Llama VHH purified from E. coli periplasm) VHH: QVQLVESGGGLVQAGGSLRLSCAASGTIESINDMGWYRQAPGKQRELVATVSSSGMTNYADSAKGRFTISRDNAKNTMYLQMNSLKPEDTAVYYCKAHISRSYYYDSLGYDYWGQGTQVTVSS | 29.3 min | 4.5 nM | 0.0011 s⁻¹ | 230000 M⁻¹ s⁻¹ | no binding (tested: 2 µg/mL) | – | 0.29 nm | – | no binding (tested: 2 µg/mL) | – | < 75 % residual activity | – | no binding | – | –
3 | LP4 (SR16983-R3-P2-A06) (VHH, not shown: small tags and cut ends, Llama VHH purified from E. coli periplasm) VHH: QLQLVESGGGLVQAGGSLRLSCAASGSTFNFRIMGWYRQVPGKQRELVAVINSGGSADYTEDVKGRFTISRDDAKSTMYLQMNSLKPEDTAVYYCHAKKVEPTLFTTTYWGQGTQVTVSS | 33 min | 4.4 nM | 0.0027 s⁻¹ | 550000 M⁻¹ s⁻¹ | no binding (tested: 2 µg/mL) | – | 0.33 nm | – | no binding (tested: 2 µg/mL) | no binding | – | – | – | – | –
4 | LP19 (SR16983-R4-P1-B06) (VHH, not shown: small tags and cut ends, Llama VHH purified from E. coli periplasm) VHH: QLQLVESGGGEVQAGESLRLSCAASGSTFSINVFAWYRDYPGKQRELVAVIGRSGTPRYADSVKGRFTISRDNAKNTVYLQMNSLEPEDTAVYYCHLGDTWGQGTQVTVSS | – | 6.1 nM | 0.0025 s⁻¹ | 410000 M⁻¹ s⁻¹ | no binding (tested: 2 µg/mL) | – | 0.31 nm | – | no binding (tested: 2 µg/mL) | – | < 75 % residual activity | – | – | no binding | –
5 | LP15 (SR16983-R3-P5-H05) (VHH, not shown: small tags and cut ends, Llama VHH purified from E. coli periplasm) VHH: QLQLVESGGGLVQAGGSLRLSCAASGTTFSFVYMGWYRQAPGNQRDLVARISSDGSTNYADSVKGRFTISGDNAKNTVYLQMNSLKPEDTARYYCFWNGHTNKWGQGTQVTVSS | 36.4 min | 16 nM | 0.0066 s⁻¹ | 400000 M⁻¹ s⁻¹ | no binding (tested: 2 µg/mL) | – | 0.31 nm | – | no binding (tested: 2 µg/mL) | – | – | – | no binding | – | –
6 | LP9 (SR16983-R3-P3-B05) (VHH, not shown: small tags and cut ends, Llama VHH purified from E. coli periplasm) VHH: EVQLVESGGGLVQAGGSLRLSCAASGRTFVGSYVMGWFRQAPGKEREFVAASSRSTGNTVYLDSVKGRFTVSRDDAKNTLYLQMNSLKTEDTAVYYCATRASINYNAATWPYWGQGTQVTVSS | 27.7 min | 0.003 nM | 6.3e-07 s⁻¹ | 210000 M⁻¹ s⁻¹ | no binding (tested: 2 µg/mL) | – | 0.33 nm | – | no binding (tested: 2 µg/mL) | no binding | – | > 90% | – | – | < 0.01 nM
7 | LP11 (SR16983-R3-P3-F03) (VHH, not shown: small tags and cut ends, Llama VHH purified from E. coli periplasm; also made in CHO cells for the endothelial barrier assay) VHH: QLQLVESGGGLAQAGGSLRLSCAASGRTFVGSYVMGWFRQAPGKEREFVAASSRSTGNTVYLDSVKGRFTISRDDAKNTLFLQMNRLKPEDTAVYYCATRASVNYNYAAWPYWGQGTQVTVSS | 25 min | 2.1 nM | 0.00069 s⁻¹ | 330000 M⁻¹ s⁻¹ | no binding (tested: 2 µg/mL) | – | 0.3 nm | > 1 ratio and ≤ 2.5 fold | no binding (tested: 2 µg/mL) | no binding | – | > 90% | – | – | –

Continued by falling Kd [2], values first:

Row | APC plasma T1/2 (min; mean) [1] | Kd [2] | koff [2] | kon [2] | binding result [3] | binding result [4] | APC binding (nm) [5] | R46/R41 cleavage ratio of PAR1 by APC [6] | binding result [7] | binding result [8] | APC-mediated histone H3 cleavage, 500 nM nanobody [6] | Protac-APTT clotting time, 300 nM nanobody [6] | binding result [9] | binding result [10] | Kd [11] | Binder
8 | – | 15 nM | 0.009 s⁻¹ | 590000 M⁻¹ s⁻¹ | – | – | 0.32 nm | – | – | – | < 75 % residual activity | – | – | – | – | LP1 (SR16983-R2-P3-D06) (VHH, not shown: small tags and cut ends, Llama VHH purified from E. coli periplasm) VHH: QLQLVESGGGLVQAGGSLRLSCAASGSTFPINVFAWYRQAPGEQRELGELVAFIGRSGTTNYGDSVKGRFTISRDNAKNTVYLQMDSLRPEDTAVYYCNLGDYWGQGTQVTVSS
9 | 33.9 min | 9.4 nM | 0.0041 s⁻¹ | 440000 M⁻¹ s⁻¹ | no binding (tested: 2 µg/mL) | no binding | 0.34 nm | – | no binding (tested: 2 µg/mL) | – | < 75 % residual activity | – | – | – | – | LP7 (SR16983-R3-P2-H08) (VHH, not shown: small tags and cut ends, Llama VHH purified from E. coli periplasm) VHH: EVQLVESGGGLVQAGGSLRLSCAASGTTFDMNSMGWYRQGPGFKRELVATISMGGDTNYADSVKGRFTISRANAKNTVYMQMNSLKPEDTAVYYCNAERIWPNRRTFWGQGTQVTVSS
10 | 28.8 min | 8.8 nM | 0.0016 s⁻¹ | 180000 M⁻¹ s⁻¹ | no binding (tested: 2 µg/mL) | – | 0.29 nm | – | no binding (tested: 2 µg/mL) | no binding | – | – | – | – | – | LP3 (SR16983-R2-P4-E09) (VHH, not shown: small tags and cut ends, Llama VHH purified from E. coli periplasm) VHH: QVQLVESGGGLVQPGGSLTLSCAASGTIESINDMGWYRQAPGKQRELVAAITSGGSTNYADSVKGRFTISRDNAKNTVYLQMNSLKPEDTAVYYCNAEVKRHYYYDSAGYRYWGQGTQVTVSS
11 | 85.6 min | 1.9 nM | 0.0007 s⁻¹ | 380000 M⁻¹ s⁻¹ | no binding (tested: 2 µg/mL) | – | 0.3 nm | – | no binding (tested: 2 µg/mL) | no binding | – | > 90% | – | – | – | LP20 (SR16983-R4-P1-B07) (VHH, not shown: small tags and cut ends, Llama VHH purified from E. coli periplasm) VHH: QLQLVESGGGLVQAGGSLRLSCTASGSTVRVTAGGWYRQTPGNERELVADIDNGGSTTYADSVKGRFTISRDNAKNAVDLQMNSLKPEDTAVYRCFVIAIPDSAPRPRAYWGQGTEVTVSS
12 | 67.1 min | 1.2 nM | 0.00041 s⁻¹ | 350000 M⁻¹ s⁻¹ | no binding (tested: 2 µg/mL) | – | 0.32 nm | – | no binding (tested: 2 µg/mL) | no binding | < 75 % residual activity | – | – | – | – | LP13 (SR16983-R3-P3-G08) (VHH, not shown: small tags and cut ends, Llama VHH purified from E. coli periplasm) VHH: QLQLVESGGGLVQAGGSLRLSCVASGTTFTIEDIGWHRQAPGKQLELVAVSRGGGNADYSDSVKGRFTISRDNAKTTVYLQMSSLKPEDTAVYYCIAKTKATTKWGRGIQVTVSS
